Measured values reported in PMC4325230 (Stem Cell Reports, 2015).

Target: EGF receptor (UniProt P00533 25-645)
Assay: MST

Kd: 0.384 ± 0.0765 µM
B1: EGFL7 (natural protein, UniProt Q9UHF1 24-273, looked up)
chain: YRPGRRVCAVRAHGDPVSESFVQRVYQPFLTTCDGHRACSTYRTIYRTAYRRSPGLAPARPRYACCPGWKRTSGLPGACGAAICQPPCRNGGSCVQPGRCRCPAGWRGDTCQSDVDECSARRGGCPQRCVNTAGSYWCQCWEGHSLSADGTLCVPKGGPPRVAPNPTGVDSAMKEEVQRLQSRVDLLEEKLQLVLAPLHSLASQALEHGLPDPGSLLVHSFQQLGRIDSLSEQISFLEEQLGSCSCKKDS
